Several values for one entry are separate records, joined by “and”; a condition that tells them apart may be missing. Identical values can stand only once.
Conditions: Homo sapiens; pH 7.2; 25 °C; GdnHCl; CD; MOPS 10 mM; KCl 50 mM; reversible: yes; whole UniProt chain shown

B1: Protein S100-B wild type, P04271 (protein)
chain: MSELEKAMVALIDVFHQYSGREGDKHKLKKSELKELINNELSHFLEEIKEQEVVDKVMETLDNDGDGECDFQEFMAFVAMVTTACHEFFEHE
**Q.** For B1, which “denaturant midpoint (higher = more stable)” value is on record?
**A.** The value was 3.2 M and 4.6 M.

**Q.** What about the unfolding free energy of the same protein?
**A.** The unfolding free energy was 17.3 kcal/mol.

— FireProtDB (doi:10.1021/bi0118052)
